In patent publication US20230203190A1:
Where “and” joins values, the source holds several entries; their conditions need not be identical. Equal entries are not always repeated. One block for each molecule: values may come before it.

Legend:
[1] = molecular target: human colorectal and pancreatic carcinoma-associated antigens (CPAA) (human); test: flow cytometry, GEO colorectal tumor cells, control antibody
[2] = molecular target: human colorectal and pancreatic carcinoma-associated antigens (CPAA) (human); test: flow cytometry, OVCAR-3 ovarian tumor cells, control antibody
[3] = molecular target: human colorectal and pancreatic carcinoma-associated antigens (CPAA) (human); test: flow cytometry, LS174T colorectal tumor cells, control antibody
[4] = molecular target: human colorectal and pancreatic carcinoma-associated antigens (CPAA) (human); test: flow cytometry, MCF-7 breast tumor cells, control antibody
[5] = molecular target: human colorectal and pancreatic carcinoma-associated antigens (CPAA) (human); test: flow cytometry, CFPAC-1 pancreatic tumor cells, control antibody
[6] = molecular target: human colorectal and pancreatic carcinoma-associated antigens (CPAA) (human); test: flow cytometry, SW1116 colorectal tumor cells, 2 ug NPC-1C per 100,000 cells
[7] = molecular target: human colorectal and pancreatic carcinoma-associated antigens (CPAA) (human); test: flow cytometry, HTB-35 squamous tumor cells (type reported as not bound), 2 ug NPC-1C per 100,000 cells
[8] = molecular target: human colorectal and pancreatic carcinoma-associated antigens (CPAA) (human); test: flow cytometry, CFPAC-1 pancreatic tumor cells, 2 ug NPC-1C per 100,000 cells
[9] = molecular target: human colorectal and pancreatic carcinoma-associated antigens (CPAA) (human); test: flow cytometry, PC-3 prostate tumor cells (type reported as not bound), 2 ug NPC-1C per 100,000 cells
[10] = molecular target: human colorectal and pancreatic carcinoma-associated antigens (CPAA) (human); test: flow cytometry, SW480 colorectal tumor cells, 2 ug NPC-1C per 100,000 cells
[11] = molecular target: human colorectal and pancreatic carcinoma-associated antigens (CPAA) (human); test: flow cytometry, H520 squamous tumor cells (type reported as not bound), 2 ug NPC-1C per 100,000 cells
[12] = molecular target: human colorectal and pancreatic carcinoma-associated antigens (CPAA) (human); test: flow cytometry, Panc-1 pancreatic tumor cells, 2 ug NPC-1C per 100,000 cells
[13] = molecular target: human colorectal and pancreatic carcinoma-associated antigens (CPAA) (human); test: flow cytometry, DU145 prostate tumor cells (type reported as not bound), 2 ug NPC-1C per 100,000 cells
[14] = molecular target: human colorectal and pancreatic carcinoma-associated antigens (CPAA) (human); test: flow cytometry, AsPC-1 pancreatic tumor cells, 2 ug NPC-1C per 100,000 cells
[15] = molecular target: human colorectal and pancreatic carcinoma-associated antigens (CPAA) (human); test: flow cytometry, H226 squamous tumor cells (type reported as not bound), 2 ug NPC-1C per 100,000 cells
[16] = molecular target: human colorectal and pancreatic carcinoma-associated antigens (CPAA) (human); test: flow cytometry, Colo-205 colorectal tumor cells, 2 ug NPC-1C per 100,000 cells
[17] = molecular target: human colorectal and pancreatic carcinoma-associated antigens (CPAA) (human); test: flow cytometry, SW756 squamous tumor cells (type reported as not bound), 2 ug NPC-1C per 100,000 cells
[18] = molecular target: human colorectal and pancreatic carcinoma-associated antigens (CPAA) (human); test: flow cytometry, HT-29 colorectal tumor cells, 2 ug NPC-1C per 100,000 cells
[19] = molecular target: human colorectal and pancreatic carcinoma-associated antigens (CPAA) (human); test: flow cytometry, LS174T colorectal tumor cells, 2 ug NPC-1C per 100,000 cells
[20] = molecular target: human colorectal and pancreatic carcinoma-associated antigens (CPAA) (human); test: flow cytometry, SW1463 colorectal tumor cells, 2 ug NPC-1C per 100,000 cells
[21] = molecular target: human colorectal and pancreatic carcinoma-associated antigens (CPAA) (human); test: flow cytometry, SW620 colorectal tumor cells, 2 ug NPC-1C per 100,000 cells
[22] = molecular target: human colorectal and pancreatic carcinoma-associated antigens (CPAA) (human); test: flow cytometry, CFPAC-1 pancreatic tumor cells, 2.5 ug NPC-1 per 100,000 cells
[23] = molecular target: human colorectal and pancreatic carcinoma-associated antigens (CPAA) (human); test: flow cytometry, OVCAR-3 ovarian tumor cells (line reported as not bound), 2.5 ug NPC-1 per 100,000 cells
[24] = molecular target: human colorectal and pancreatic carcinoma-associated antigens (CPAA) (human); test: flow cytometry, MCF-7 breast tumor cells (line reported as not bound), 2.5 ug NPC-1 per 100,000 cells
[25] = molecular target: human colorectal and pancreatic carcinoma-associated antigens (CPAA) (human); test: flow cytometry, LS174T colorectal tumor cells, 2.5 ug NPC-1 per 100,000 cells
[26] = molecular target: human colorectal and pancreatic carcinoma-associated antigens (CPAA) (human); test: flow cytometry, GEO colorectal tumor cells, 2.5 ug NPC-1 per 100,000 cells

% Cell Staining [1]: 0.78%
% Cell Staining [2]: 0.19%
% Cell Staining [3]: 0.93%
% Cell Staining [4]: 0.94%
% Cell Staining [5]: 0.44%
Molecule: Isotype Control (antibody)

% Cell Staining [6]: 1.12% and 2.37%
mfi (mean fluorescence intensity) [6]: 97 and 174
% Cell Staining [7]: 4.83% and 3.85%
mfi (mean fluorescence intensity) [7]: 97 and 123
% Cell Staining [8]: 11.2% and 10.6%
mfi (mean fluorescence intensity) [8]: 16 and 15
% Cell Staining [9]: 1.34% and 1.52%
mfi (mean fluorescence intensity) [9]: 17 and 28
% Cell Staining [10]: 1.41% and 1.34%
mfi (mean fluorescence intensity) [10]: 44 and 64
% Cell Staining [11]: 1.66% and 0.93%
mfi (mean fluorescence intensity) [11]: 129 and 173
% Cell Staining [12]: 0.75% and 0.41%
mfi (mean fluorescence intensity) [12]: 69 and 31
% Cell Staining [13]: 0.24% and 0.14%
% Cell Staining [14]: 0.43% and 0.35%
mfi (mean fluorescence intensity) [14]: 33 and 34
% Cell Staining [15]: 0.49% and 0.4%
mfi (mean fluorescence intensity) [15]: 32
% Cell Staining [16]: 2.26% and 1.44%
mfi (mean fluorescence intensity) [16]: 154 and 67
% Cell Staining [17]: 0.75% and 2.14%
mfi (mean fluorescence intensity) [17]: 186 and 178
% Cell Staining [18]: 1.3% and 1.09%
mfi (mean fluorescence intensity) [18]: 55 and 34
% Cell Staining [19]: 11.6% and 11.2%
mfi (mean fluorescence intensity) [19]: 43 and 47
% Cell Staining [20]: 3.72% and 4.29%
mfi (mean fluorescence intensity) [20]: 410 and 399
% Cell Staining [21]: 0.24% and 0.85%
mfi (mean fluorescence intensity) [21]: 184 and 74
B1: NPC-1C chimeric antibody (antibody, mouse IgG1, kappa, V domains shown)
VH: QVQLKESGPDLVAPSQSLSITCIVSGFSLSKFGVNWVRQPPGKGLEWLGVIWGDGSTSYNSGLISRLSIKENSKSQVFLKLNSLQADDTATYYCVKPGGDYWGHGTSVTVSS
VL: QVVLTQSPVIMSASPGEKVTMTCSASSSISYMYWYQQKPGTSPRWIYDTSKLASGVPARFSGGSGTSYSLTISNMEAGDAAYYCHQRDSYPWTFGGGTNLIKRA

% Cell Staining [22]: 54.6%
% Cell Staining [23]: 0.19%
% Cell Staining [24]: 0.19%
% Cell Staining [25]: 57%
% Cell Staining [26]: 86.9%
B2: NPC-1 monoclonal antibody (antibody, mouse IgG1, kappa, V domains shown)
VH: QVQLKESGPDLVAPSQSLSITCIVSGFSLSKFGVNWVRQPPGKGLEWLGVIWGDGSTSYNSGLISRLSIKENSKSQVFLKLNSLQADDTATYYCVKPGGDYWGHGTSVTVSS
VL: QVVLTQSPVIMSASPGEKVTMTCSASSSISYMYWYQQKPGTSPRWIYDTSKLASGVPARFSGGSGTSYSLTISNMEAGDAAYYCHQRDSYPWTFGGGTNLIKRA
